# From PMC7923362
# * marks the point of attachment. Dnp = O=[N+]([O-])c1ccc(*)c([N+](=O)[O-])c1
# Molecular target: SARS-CoV-2 main protease (M^pro), tag-free, native N and C termini (SARS-CoV-2)
binder,measurement,value
{MCA}-AVLQSGFRK(Dnp)K-NH2 [FRET substrate MCA-AVLQSGFR-Lys(Dnp)-Lys-NH2],"Michaelis constant (Km) of the FRET-based enzymatic assay; M^pro 100 nM, substrate at various concentrations, Lineweaver-Burk plot",1.41 µM
